Experimental data reported in article PMC10663459.

How the values were obtained:
VRC34.01_combo1 Fab = assay: BLI; conditions: n = 3 independent experiments; parent: est. 1.0; read off a plot
[1] = target: fusion peptide V1 (ITC peptide) (HIV-1); assay: ITC
[2] = target: fusion peptide V1 (ITC peptide); assay: ITC; conditions: parent: est. 33; read off a plot
[3] = target: BG505 SOSIP trimer with FP v3 (AIGLGAMF); assay: yeast display FACS sort with NGS; conditions: Round 3 high-affinity sort, read off a plot
[4] = target: BG505 SOSIP trimer with FP Thai (AVGIGAMI); assay: yeast display FACS sort with NGS; conditions: Round 3 high-affinity sort, read off a plot
[5] = target: BG505 SOSIP trimer with FP v1 ([…]); assay: yeast display FACS sort with NGS; conditions: Round 3 high-affinity sort, VH-SSM library; parent: est. 1.8; read off a plot
[6] = target: fusion peptide FP_v1 (V1: […]) (HIV-1); assay: ITC
[7] = VH-SSM library, parent: est. 1.4
[8] = VL-SSM library, parent: est. 0.4

His-tagged fusion peptide (residue 512-521), wild type (BLI peptide) A512G
ratio to parent (VRC34.01_combo1 Fab): 0.88

His-tagged fusion peptide (residue 512-521), wild type (BLI peptide) A517G
ratio to parent (VRC34.01_combo1 Fab): 0.97

His-tagged fusion peptide (residue 512-521), wild type (BLI peptide) F519G
ratio to parent (VRC34.01_combo1 Fab): 0.82

His-tagged fusion peptide (residue 512-521), wild type (BLI peptide) G514A
ratio to parent (VRC34.01_combo1 Fab): 0.97

His-tagged fusion peptide (residue 512-521), wild type (BLI peptide) G516A
ratio to parent (VRC34.01_combo1 Fab): 0.14

His-tagged fusion peptide (residue 512-521), wild type (BLI peptide) I515A
ratio to parent (VRC34.01_combo1 Fab): 0.12

His-tagged fusion peptide (residue 512-521), wild type (BLI peptide) I515G
ratio to parent (VRC34.01_combo1 Fab): 0.01

His-tagged fusion peptide (residue 512-521), wild type (BLI peptide) V513A
ratio to parent (VRC34.01_combo1 Fab): 0.47

His-tagged fusion peptide (residue 512-521), wild type (BLI peptide) V513G
ratio to parent (VRC34.01_combo1 Fab): 0.01

His-tagged fusion peptide (residue 512-521), wild type (BLI peptide) V518A
ratio to parent (VRC34.01_combo1 Fab): 0.97

His-tagged fusion peptide (residue 512-521), wild type (BLI peptide) V518G
ratio to parent (VRC34.01_combo1 Fab): 0.83

VRC34.01 (template antibody), IgG
Kd [1]: 33 nM

VRC34.01 (template antibody), IgG H:E2K
Kd [2]: 27 nM

VRC34.01 (template antibody), IgG H:E2K; H:A33P; H:T59F
Kd [2]: 2.2 nM

VRC34.01 (template antibody), IgG H:T59F
Kd [2]: 7.5 nM

VRC34.01 Fab H:A33P
enrichment [3, 7]: 55

VRC34.01 Fab H:K12A
enrichment ([4]; VH-SSM library, parent: est. 0.7): 450

VRC34.01 Fab H:T58Q
enrichment [5]: 400

VRC34.01 Fab H:T59F
enrichment [3, 7]: 480

VRC34.01 Fab H:T59Y
enrichment [3, 7]: 2500

VRC34.01 Fab L:D1Y
enrichment [4, 8]: 580

VRC34.01 Fab L:S92T
enrichment ([3]; VL-SSM library, parent: est. 1.7): 110
enrichment [4, 8]: 440

VRC34.01 VH_T59F, IgG (antibody)
fold higher affinity than VRC34.01 [1]: 4 fold

VRC34.01-HC-E2K (antibody)
Kd [6]: 28 nM

VRC34.01-HC-T59F (antibody)
Kd [6]: 7.7 nM
stoichiometry N [6]: 0.8

VRC34.01_combo1 (VH_E2K_T59F), IgG (antibody)
fold better binding than VRC34.01 [1]: 6 fold
